For the test, the target named is T1, Rae1–Nup98_(GLEBS) complex (UniProt P78406 1-368; P52948 157-213).
T1 construct: Deca-histidine tags are called non-cleavable; also called Rae1–Nup98 complex; Rae1–Nup98 heterodimer; not shown: His10, C-terminal, kept; His10, N-terminal, kept
Briefly: ITC. Particulars: both partners purified.

As usually defined, the Kd is the constant that tells how readily two partners part at equilibrium. A word on the stoichiometry N: it is the number of molecules, sites or subunits per partner or assembly.

T1 sequence (P78406 whole entry, chain 1 of 2): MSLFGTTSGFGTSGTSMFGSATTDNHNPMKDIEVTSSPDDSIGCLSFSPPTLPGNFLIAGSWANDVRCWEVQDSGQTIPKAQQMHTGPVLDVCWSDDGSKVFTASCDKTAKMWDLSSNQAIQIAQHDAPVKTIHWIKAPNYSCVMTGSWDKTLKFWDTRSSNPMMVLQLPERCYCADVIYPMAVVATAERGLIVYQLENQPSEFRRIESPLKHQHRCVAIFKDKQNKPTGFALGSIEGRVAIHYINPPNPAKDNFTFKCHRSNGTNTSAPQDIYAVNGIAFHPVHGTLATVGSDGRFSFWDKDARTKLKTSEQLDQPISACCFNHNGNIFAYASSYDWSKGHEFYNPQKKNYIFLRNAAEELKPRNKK
T1 sequence (P52948 157-213, chain 2 of 2): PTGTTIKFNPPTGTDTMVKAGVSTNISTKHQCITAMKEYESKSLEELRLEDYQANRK

For SKSLTENKYSQLDEEQPMEID (also called SARS-CoV-2 Orf6 peptide) [SARS-CoV-2 Orf6CTT (21-mer peptide, residues 41–61 of SARS-CoV-2 Orf6)], the equilibrium dissociation constant (Kd) is 142 nM and the “stoichiometry N” value was determined as 1.

Values taken from PMC8790125, “Molecular Mechanism of SARS-CoVs Orf6 Targeting the Rae1–Nup98 Complex to Compete With mRNA Nuclear Export” (Frontiers in Molecular Biosciences, 2021).
